Values quoted from earlier work, collected in paper PMC5494978.

Molecular target: Bfd (Pseudomonas aeruginosa) (UniProt Q9HY80)
Chain of UniProt Q9HY80 (Q9HY80 whole entry): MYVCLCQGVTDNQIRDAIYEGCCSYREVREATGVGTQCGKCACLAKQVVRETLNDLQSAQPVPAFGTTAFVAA

In the case of BfrB (from UniProt Q9HY79), the Kd is given as 3000 nM.
